# Experimental data reported in patent US20260049137A1 (JANUX THERAPEUTICS, published 2026).
# Read-outs that look alike come from different tables or passages of the source.
# T1: TROP2 on TROP2 positive NCI-H292 or HCT116 tumor cells (UniProt P09758 27-323, limits assumed)
# T1 sequence (looked up): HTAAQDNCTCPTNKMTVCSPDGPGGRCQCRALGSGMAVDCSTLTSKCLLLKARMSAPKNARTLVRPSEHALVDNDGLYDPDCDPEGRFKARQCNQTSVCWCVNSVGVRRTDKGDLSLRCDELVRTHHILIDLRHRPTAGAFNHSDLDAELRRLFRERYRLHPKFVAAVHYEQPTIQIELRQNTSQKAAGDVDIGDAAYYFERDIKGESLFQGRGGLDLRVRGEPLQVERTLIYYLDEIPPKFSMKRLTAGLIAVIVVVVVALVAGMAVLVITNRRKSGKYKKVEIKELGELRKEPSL
# T2: cynomolgus monkey TROP2 on recombinant HEK293 cells (cynomolgus monkey, UniProt A0A2K5UE71 27-323)
# T2 sequence: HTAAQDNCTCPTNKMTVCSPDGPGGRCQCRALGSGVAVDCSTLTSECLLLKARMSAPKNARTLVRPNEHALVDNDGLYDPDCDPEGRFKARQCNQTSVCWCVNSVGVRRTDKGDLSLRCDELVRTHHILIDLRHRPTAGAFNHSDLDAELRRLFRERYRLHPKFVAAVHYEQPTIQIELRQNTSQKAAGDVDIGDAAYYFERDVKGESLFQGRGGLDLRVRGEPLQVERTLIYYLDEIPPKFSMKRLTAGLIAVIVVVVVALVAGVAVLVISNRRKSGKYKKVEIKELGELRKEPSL
# T3: human TROP2-biotin (biotinylated TROP2) (human, UniProt P09758 27-274, limits assumed, biotinylated)
# T3 construct: also called hTROP2-Biotin
# T3 sequence (looked up): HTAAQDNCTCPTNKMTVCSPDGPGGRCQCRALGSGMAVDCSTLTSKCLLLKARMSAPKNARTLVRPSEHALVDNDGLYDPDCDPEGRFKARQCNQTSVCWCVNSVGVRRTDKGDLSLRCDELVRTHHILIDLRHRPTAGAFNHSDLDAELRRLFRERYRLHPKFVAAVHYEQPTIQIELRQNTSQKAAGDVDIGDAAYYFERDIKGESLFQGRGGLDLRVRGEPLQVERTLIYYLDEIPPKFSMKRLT
# What was measured:
# [1] = target: T1, TROP2 on TROP2 positive NCI-H292 or …; test: cell-based or functional assay
# [2] = target: T1, TROP2 on TROP2 positive NCI-H292 or …; test: cell-based or functional assay; remark: listed apart in the source
# [3] = target: T1, TROP2 on TROP2 positive NCI-H292 or …; test: cell-based or functional assay; remark: listed apart in the source
# [4] = target: T1, TROP2 on TROP2 positive NCI-H292 or …; test: cell-based or functional assay; remark: listed apart in the source
# [5] = target: T2, cynomolgus monkey TROP2 on recombinant …; test: cell-based or functional assay
# [6] = target: T1, TROP2 on TROP2 positive NCI-H292 or …; test: cell-based or functional assay; remark: listed apart in the source
# [7] = target: T4, human CD3ε-biotin (biotinylated CD3ε) (human, UniProt P07766 23-126, limits assumed, biotinylated); test: ELISA: biotinylated CD3 captured on neutravidin coated plates, HRP secondary antibody, OD 450 nm
# T4 construct: also called CD3e-bio; CD3e-biotin
# T4 sequence (P07766 23-126 limits assumed): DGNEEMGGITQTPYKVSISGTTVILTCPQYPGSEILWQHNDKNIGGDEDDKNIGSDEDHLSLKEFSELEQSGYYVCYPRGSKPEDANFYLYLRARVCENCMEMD
# Description: (§1) The TCE constructs diluted in buffer were then added to the antigen coated plates. Binding was detected using a standard horse radish peroxidase secondary antibody. The concentration of the TCE required to achieve 50% maximal signal (EC₅₀) was calculated using Graphpad Prism software.
# [8] = target: T3, human TROP2-biotin (biotinylated TROP2); test: ELISA: biotinylated TROP2 captured on neutravidin coated plates, HRP secondary antibody, OD 450 nm
# Description: as §1
binder,measurement,setting,value
"TCE-1: anti-CD3 scFv wt + linker + anti-TROP2 HC wt, with anti-TROP2 LC wt (bispecific antibody) light: DIQLTQSPSSLSASVGDRVSITCKASQDVSIAVAWYQQKPGKAPKLLIYSASYRYTGVPDRFSGSGSGTDFTLTISSLQPEDFAVYYCQQHYITPLTFGAGTKVEIKRTVAAPSVFIFPPSDEQLKSGTASVVCLLNNFYPREAKVQWKVDNALQSGNSQESVTEQDSKDSTYSLSSTLTLSKADYEKHKVYACEVTHQGLSSPVTKSFNRGEC heavy: not shown",H292 Cytotox EC50 (pM),[1],0.7 pM
same,H292 Cytotox EC50 (pM),[2],0.7 pM
same,H292 Cytotox EC50 (pM),[3],0.7 pM
"TCE-27: anti-CD3 scFv + linker + anti-TROP2 HC wt, with anti-TROP2 LC wt (bispecific antibody) light: DIQLTQSPSSLSASVGDRVSITCKASQDVSIAVAWYQQKPGKAPKLLIYSASYRYTGVPDRFSGSGSGTDFTLTISSLQPEDFAVYYCQQHYITPLTFGAGTKVEIKRTVAAPSVFIFPPSDEQLKSGTASVVCLLNNFYPREAKVQWKVDNALQSGNSQESVTEQDSKDSTYSLSSTLTLSKADYEKHKVYACEVTHQGLSSPVTKSFNRGEC heavy: EVQLVESGGGLVQPGGSLKLSCAASGFTFNKYAMNWVRQASGKGLEWVGRIRSKYNNYATYYADSVKDRFTISRDDSKNTAYLQMNSLKTEDTAVYYCVRHGNFGNSYISYWAYWGQGTLVTVSSGGGGSGGGGSGGGGSQTVVTQEPSFSVSPGGTVTLTCRSSTGAVTSGNYANWVQQTPGQAPRGLIGGTKFLAPGVPDRFSGSILGNKAALTITGAQADDESDYYCVLWYSNRWVFGGGTKLTVLGGGGSQVQLQQSGSELKKPGASVKVSCKASGYTFTNYGMNWVKQAPGQGLKWMGWINTYTGEPTYTDDFKGRFAFSLDTSVSTAYLQISSLKADDTAVYFCARGGFGSSYWYFDVWGQGSLVTVSSASTKGPSVFPLAPSSKSTSGGTAALGCLVKDYFPEPVTVSWNSGALTSGVHTFPAVLQSSGLYSLSSVVTVPSSSLGTQTYICNVNHKPSNTKVDKKVEPKSC",H292 Cytotox EC50 (pM),[2],0.5 pM
"TCE-29: anti-CD3 scFv wt + linker + anti-TROP2 (F108A) HC, with anti-TROP2 LC wt (bispecific antibody) light: DIQLTQSPSSLSASVGDRVSITCKASQDVSIAVAWYQQKPGKAPKLLIYSASYRYTGVPDRFSGSGSGTDFTLTISSLQPEDFAVYYCQQHYITPLTFGAGTKVEIKRTVAAPSVFIFPPSDEQLKSGTASVVCLLNNFYPREAKVQWKVDNALQSGNSQESVTEQDSKDSTYSLSSTLTLSKADYEKHKVYACEVTHQGLSSPVTKSFNRGEC heavy: not shown",HCT116 Cytotox EC50 (pM),[4],109 pM
same,CynoTROP2+ HEK293 cells Cytotox EC50 (pM),[5],0.2 pM
same,H292 Cytotox EC50 (pM),[6],5 pM
"TCE-49 (bispecific antibody, also called TCE-49: anti-CD3 scFv (N236A) + linker + anti-TROP2 (F108A) HC, with anti-TROP2 LC wt) light chain (anti-TROP2 LC wt): DIQLTQSPSSLSASVGDRVSITCKASQDVSIAVAWYQQKPGKAPKLLIYSASYRYTGVPDRFSGSGSGTDFTLTISSLQPEDFAVYYCQQHYITPLTFGAGTKVEIKRTVAAPSVFIFPPSDEQLKSGTASVVCLLNNFYPREAKVQWKVDNALQSGNSQESVTEQDSKDSTYSLSSTLTLSKADYEKHKVYACEVTHQGLSSPVTKSFNRGEC heavy chain (anti-CD3 scFv N236A + linker + anti-TROP2 F108A HC): not shown",EC50,[7],0.23 nM
same,EC50,[8],0.87 nM
"TCE-24: anti-CD3 scFv (W238A) + linker + anti-TROP2 HC wt, with anti-TROP2 LC wt (bispecific antibody) light: DIQLTQSPSSLSASVGDRVSITCKASQDVSIAVAWYQQKPGKAPKLLIYSASYRYTGVPDRFSGSGSGTDFTLTISSLQPEDFAVYYCQQHYITPLTFGAGTKVEIKRTVAAPSVFIFPPSDEQLKSGTASVVCLLNNFYPREAKVQWKVDNALQSGNSQESVTEQDSKDSTYSLSSTLTLSKADYEKHKVYACEVTHQGLSSPVTKSFNRGEC heavy: not shown",H292 Cytotox EC50 (pM),[3],> 1000 pM
"TCE-26: anti-CD3 scFv (F240A) + linker + anti-TROP2 HC wt, with anti-TROP2 LC wt (bispecific antibody) light: DIQLTQSPSSLSASVGDRVSITCKASQDVSIAVAWYQQKPGKAPKLLIYSASYRYTGVPDRFSGSGSGTDFTLTISSLQPEDFAVYYCQQHYITPLTFGAGTKVEIKRTVAAPSVFIFPPSDEQLKSGTASVVCLLNNFYPREAKVQWKVDNALQSGNSQESVTEQDSKDSTYSLSSTLTLSKADYEKHKVYACEVTHQGLSSPVTKSFNRGEC heavy: not shown",H292 Cytotox EC50 (pM),[3],20 pM
"TCE-30: anti-CD3 scFv (H101A) + linker + anti-TROP2 (F108A) HC, with anti-TROP2 LC wt (bispecific antibody) light: DIQLTQSPSSLSASVGDRVSITCKASQDVSIAVAWYQQKPGKAPKLLIYSASYRYTGVPDRFSGSGSGTDFTLTISSLQPEDFAVYYCQQHYITPLTFGAGTKVEIKRTVAAPSVFIFPPSDEQLKSGTASVVCLLNNFYPREAKVQWKVDNALQSGNSQESVTEQDSKDSTYSLSSTLTLSKADYEKHKVYACEVTHQGLSSPVTKSFNRGEC heavy: not shown",CynoTROP2+ HEK293 cells Cytotox EC50 (pM),[5],1 pM
"TCE-19: anti-CD3 scFv (W233A) + linker + anti-TROP2 HC wt, with anti-TROP2 LC wt (bispecific antibody) light: DIQLTQSPSSLSASVGDRVSITCKASQDVSIAVAWYQQKPGKAPKLLIYSASYRYTGVPDRFSGSGSGTDFTLTISSLQPEDFAVYYCQQHYITPLTFGAGTKVEIKRTVAAPSVFIFPPSDEQLKSGTASVVCLLNNFYPREAKVQWKVDNALQSGNSQESVTEQDSKDSTYSLSSTLTLSKADYEKHKVYACEVTHQGLSSPVTKSFNRGEC heavy: not shown",H292 Cytotox EC50 (pM),[3],> 1000 pM
"TCE-33: anti-CD3 scFv + linker + anti-TROP2 (F108A) HC, with anti-TROP2 LC wt (bispecific antibody) light: DIQLTQSPSSLSASVGDRVSITCKASQDVSIAVAWYQQKPGKAPKLLIYSASYRYTGVPDRFSGSGSGTDFTLTISSLQPEDFAVYYCQQHYITPLTFGAGTKVEIKRTVAAPSVFIFPPSDEQLKSGTASVVCLLNNFYPREAKVQWKVDNALQSGNSQESVTEQDSKDSTYSLSSTLTLSKADYEKHKVYACEVTHQGLSSPVTKSFNRGEC heavy: EVQLVESGGGLVQPGGSLKLSCAASGFTFNKYAMNWVRQASGKGLEWVGRIRSKYNNYATYYADSVKDRFTISRDDSKNTAYLQMNSLKTEDTAVYYCVRHGNFGNSYISYWAYWGQGTLVTVSSGGGGSGGGGSGGGGSQTVVTQEPSFSVSPGGTVTLTCRSSTGAVTSGNYANWVQQTPGQAPRGLIGGTKFLAPGVPDRFSGSILGNKAALTITGAQADDESDYYCVLWYSNRWVFGGGTKLTVLGGGGSQVQLQQSGSELKKPGASVKVSCKASGYTFTNYGMNWVKQAPGQGLKWMGWINTYTGEPTYTDDFKGRFAFSLDTSVSTAYLQISSLKADDTAVYFCARGGFGSSYWYADVWGQGSLVTVSSASTKGPSVFPLAPSSKSTSGGTAALGCLVKDYFPEPVTVSWNSGALTSGVHTFPAVLQSSGLYSLSSVVTVPSSSLGTQTYICNVNHKPSNTKVDKKVEPKSC",HCT116 Cytotox EC50 (pM),[4],73 pM
same,H292 Cytotox EC50 (pM),[6],3 pM
"TCE-32: anti-CD3 scFv (F240A) + linker + anti-TROP2 (F108A) HC, with anti-TROP2 LC wt (bispecific antibody) light: DIQLTQSPSSLSASVGDRVSITCKASQDVSIAVAWYQQKPGKAPKLLIYSASYRYTGVPDRFSGSGSGTDFTLTISSLQPEDFAVYYCQQHYITPLTFGAGTKVEIKRTVAAPSVFIFPPSDEQLKSGTASVVCLLNNFYPREAKVQWKVDNALQSGNSQESVTEQDSKDSTYSLSSTLTLSKADYEKHKVYACEVTHQGLSSPVTKSFNRGEC heavy: not shown",HCT116 Cytotox EC50 (pM),[4],> 3000 pM
same,CynoTROP2+ HEK293 cells Cytotox EC50 (pM),[5],5 pM
"TCE-48 (bispecific antibody, also called TCE-48: anti-CD3 scFv (L232A) + linker + anti-TROP2 (F108A) HC, with anti-TROP2 LC wt) light chain (anti-TROP2 LC wt): DIQLTQSPSSLSASVGDRVSITCKASQDVSIAVAWYQQKPGKAPKLLIYSASYRYTGVPDRFSGSGSGTDFTLTISSLQPEDFAVYYCQQHYITPLTFGAGTKVEIKRTVAAPSVFIFPPSDEQLKSGTASVVCLLNNFYPREAKVQWKVDNALQSGNSQESVTEQDSKDSTYSLSSTLTLSKADYEKHKVYACEVTHQGLSSPVTKSFNRGEC heavy chain (anti-CD3 scFv L232A + linker + anti-TROP2 F108A HC): not shown",EC50,[7],0.36 nM
same,EC50,[8],1.3 nM
"TCE-35: anti-CD3 scFv wt + linker + anti-TROP2 (D109A) HC, with anti-TROP2 LC wt (bispecific antibody) light: DIQLTQSPSSLSASVGDRVSITCKASQDVSIAVAWYQQKPGKAPKLLIYSASYRYTGVPDRFSGSGSGTDFTLTISSLQPEDFAVYYCQQHYITPLTFGAGTKVEIKRTVAAPSVFIFPPSDEQLKSGTASVVCLLNNFYPREAKVQWKVDNALQSGNSQESVTEQDSKDSTYSLSSTLTLSKADYEKHKVYACEVTHQGLSSPVTKSFNRGEC heavy: not shown",CynoTROP2+ HEK293 cells Cytotox EC50 (pM),[5],0.1 pM
same,H292 Cytotox EC50 (pM),[6],1 pM
"TCE-28: anti-CD3 scFv + linker + anti-TROP2 HC wt, with anti-TROP2 LC wt (bispecific antibody) light: DIQLTQSPSSLSASVGDRVSITCKASQDVSIAVAWYQQKPGKAPKLLIYSASYRYTGVPDRFSGSGSGTDFTLTISSLQPEDFAVYYCQQHYITPLTFGAGTKVEIKRTVAAPSVFIFPPSDEQLKSGTASVVCLLNNFYPREAKVQWKVDNALQSGNSQESVTEQDSKDSTYSLSSTLTLSKADYEKHKVYACEVTHQGLSSPVTKSFNRGEC heavy: not shown",H292 Cytotox EC50 (pM),[2],2.1 pM
